Results reported in the supplement of paper PMC6757056.
± gives the standard deviation of the averaged measurements.

B1: library; a variant is named by its letters at N, in order (parent)
chain: GCUGUCACCGGAAUACCAGCAUCGUCUUGAUGCCCUUGGAAGUCCGGUCUGAUGAGUCCNNNNNGGACGAAACAGC

Key:
[1] = variants of: B1; experiment: FACS-Seq fitted mean relative fluorescence mCherry/BFP without ligand (log10 relative fluorescence); higher = higher reporter protein expression; conditions: HEK293T, ligand present: no
Outline: (§1)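 An mCherry reporter containing the ribozyme switch and an EF1α-BFP marker were introduced by lentivirus into HEK293T libraries. Cells were enriched, incubated 48 h with or without ligand, sorted into 6 bins by mCherry/BFP, and bin genomic DNA was PCR-amplified, barcoded and sequenced on MiSeq. Fluorescence represents the normalized fitted normal mean of the bin counts. Fitting was done on log10(mCherry/BFP), scaling to five spiked-in control ribozymes.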

[2] = variants of: B1; experiment: normalized RNA/DNA level with ligand (relative to sTRSVctl = 100) (log10 (% of sTRSVctl)); higher = less ribozyme self-cleavage, higher mRNA level; conditions: ligand concentration (+) RNA-Seq: 5 mM, HEK293T, reporter: mCherry (pCS4076), ligand present: yes
Outline: (§2)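 Ribozyme switch library plasmids linked to reporters were introduced into HEK293T cells at 4 µg per 6-well well, with ligand, if any, added 1 h before. Total RNA was extracted with EDTA 72 h later, reverse-transcribed, amplified, barcoded and sequenced. RNA level was computed from RNA over DNA reads relative to a spiked-in non-cleaving sequence or the top sequences, then scaled and log-transformed. The top set was 25 sequences, values were ×100 and log10, and the cutoff was ≥100 DNA reads.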

[3] = variants of: B1; experiment: normalized RNA/DNA level without ligand (relative to sTRSVctl = 100) (log10 (% of sTRSVctl)); higher = less ribozyme self-cleavage, higher mRNA level; conditions: HEK293T, reporter: mCherry (pCS4076), ligand present: no
Outline: as §2

[4] = variants of: B1; experiment: FACS-Seq fitted mean relative fluorescence mCherry/BFP with ligand (log10 relative fluorescence); ligand concentration (+) FACS-Seq: 1 mM; higher = higher reporter protein expression; conditions: HEK293T, ligand present: yes
Outline: as §1

Variant | FACS-Seq fitted mean (log10) [1] | normalized RNA/DNA level with ligand (log10) [2] | normalized RNA/DNA level without ligand (log10) [3] | FACS-Seq fitted mean (log10) [4]
GCUGUCACCGGAAUACCAGCAUCGUCUUGAUGCCCUUGGAAGUCCGGUCUGAUGAGUCCUCGAUGGACGAAACAGC | 0.605 ± 0.16 | 2.087 ± 0.0041 | 1.78 ± 0.12 | 0.815 ± 0.057
GCUGUCACCGGAAUACCAGCAUCGUCUUGAUGCCCUUGGAAGUCCGGUCUGAUGAGUCCGCGAUGGACGAAACAGC | 0.428 ± 0.072 | 1.96 ± 0.025 | 1.7 ± 0.18 | 0.549 ± 0.1
GCUGUCACCGGAAUACCAGCAUCGUCUUGAUGCCCUUGGAAGUCCGGUCUGAUGAGUCCCCGAUGGACGAAACAGC | 0.974 ± 0.065 | 2 ± 0.047 | 1.64 ± 0.11 | 1.06 ± 0.11
GCUGUCACCGGAAUACCAGCAUCGUCUUGAUGCCCUUGGAAGUCCGGUCUGAUGAGUCCCCGCCGGACGAAACAGC | 1.17 ± 0.096 | 2.0217 ± 0.0019 | 1.96 ± 0.033 | 1.18 ± 0.036
GCUGUCACCGGAAUACCAGCAUCGUCUUGAUGCCCUUGGAAGUCCGGUCUGAUGAGUCCCCGCUGGACGAAACAGC | 0.291 ± 0.035 | 2.09 ± 0.012 | 1.81 ± 0.024 | 0.381 ± 0.0062
GCUGUCACCGGAAUACCAGCAUCGUCUUGAUGCCCUUGGAAGUCCGGUCUGAUGAGUCCCCGCAGGACGAAACAGC | 0.678 ± 0.047 | 2.08 ± 0.025 | 1.83 ± 0.043 | 0.764 ± 0.0084
GCUGUCACCGGAAUACCAGCAUCGUCUUGAUGCCCUUGGAAGUCCGGUCUGAUGAGUCCACGCGGGACGAAACAGC | 1.002 ± 0.0074 | 2.009 ± 0.009 | 1.86 ± 0.036 | 1.09 ± 0.058
GCUGUCACCGGAAUACCAGCAUCGUCUUGAUGCCCUUGGAAGUCCGGUCUGAUGAGUCCACGCCGGACGAAACAGC | 1.08 ± 0.17 | 1.95 ± 0.074 | 1.94 ± 0.19 | 0.984 ± 0.017
GCUGUCACCGGAAUACCAGCAUCGUCUUGAUGCCCUUGGAAGUCCGGUCUGAUGAGUCCACGCUGGACGAAACAGC | 0.995 ± 0.016 | 2.08 ± 0.17 | 1.914 ± 0.019 | 1.01 ± 0.031
GCUGUCACCGGAAUACCAGCAUCGUCUUGAUGCCCUUGGAAGUCCGGUCUGAUGAGUCCACGCAGGACGAAACAGC | 0.6839 ± 0.0046 | 1.99 ± 0.053 | 1.77 ± 0.03 | 0.824 ± 0.049
GCUGUCACCGGAAUACCAGCAUCGUCUUGAUGCCCUUGGAAGUCCGGUCUGAUGAGUCCUCGCAGGACGAAACAGC | 0.556 ± 0.006 | 1.96 ± 0.055 | 1.57 ± 0.12 | 0.806 ± 0.091
GCUGUCACCGGAAUACCAGCAUCGUCUUGAUGCCCUUGGAAGUCCGGUCUGAUGAGUCCUCGCUGGACGAAACAGC | 0.4314 ± 0.00049 | 2.03 ± 0.11 | 1.891 ± 0.0058 | 0.533 ± 0.055
GCUGUCACCGGAAUACCAGCAUCGUCUUGAUGCCCUUGGAAGUCCGGUCUGAUGAGUCCUCGCCGGACGAAACAGC | 1.03 ± 0.1 | 2 ± 0.095 | 1.872 ± 0.014 | 1.06 ± 0.095
GCUGUCACCGGAAUACCAGCAUCGUCUUGAUGCCCUUGGAAGUCCGGUCUGAUGAGUCCCCGGAGGACGAAACAGC | 0.978 ± 0.089 | 2.08 ± 0.027 | 1.9 ± 0.044 | 1.05 ± 0.15
GCUGUCACCGGAAUACCAGCAUCGUCUUGAUGCCCUUGGAAGUCCGGUCUGAUGAGUCCACGGCGGACGAAACAGC | 1.25 ± 0.15 | 1.97 ± 0.059 | 1.97 ± 0.067 | 1.17 ± 0.014
GCUGUCACCGGAAUACCAGCAUCGUCUUGAUGCCCUUGGAAGUCCGGUCUGAUGAGUCCACGGAGGACGAAACAGC | 0.425 ± 0.14 | 1.95 ± 0.02 | 1.66 ± 0.073 | 0.602 ± 0.1
GCUGUCACCGGAAUACCAGCAUCGUCUUGAUGCCCUUGGAAGUCCGGUCUGAUGAGUCCACGAGGGACGAAACAGC | 0.428 ± 0.049 | 2.05 ± 0.026 | 1.85 ± 0.073 | 0.448 ± 0.017
GCUGUCACCGGAAUACCAGCAUCGUCUUGAUGCCCUUGGAAGUCCGGUCUGAUGAGUCCACGAUGGACGAAACAGC | 0.425 ± 0.067 | 2.06 ± 0.059 | 1.69 ± 0.15 | 0.552 ± 0.049
